Assay results as given in IntAct's records for PubMed 16326715.

B1: Neutrophil cytosol factor 1 (Homo sapiens), P14598 (parent)
chain: MGDTFIRHIALLGFEKRFVPSQHYVYMFLVKWQDLSEKVVYRRFTEIYEFHKTLKEMFPIEAGAINPENRIIPHLPAPKWFDGQRAAENRQGTLTEYCSTLMSLPTKISRCPHLLDFFKVRPDDLKLPTDNQTKKPETYLMPKDGKSTATDITGPIILQTYRAIANYEKTSGSEMALSTGDVVEVVEKSESGWWFCQMKAKRGWIPASFLEPLDSPDETEDPEPNYAGEPYVAIKAYTAVEGDEVSLLEGEAVEVIHKLLDGWWVIRKDDVTGYFPSMYLQKSGQDVSQAQRQIKRGAPPRRSSIRNAHSIHQRSRKRLSQDAYRRNSVRFLQQRRRQARPGPQSPGSPLEEERQTQRSKPQPAVPPRPSADLILNRCSESTKRKLASAV
partner: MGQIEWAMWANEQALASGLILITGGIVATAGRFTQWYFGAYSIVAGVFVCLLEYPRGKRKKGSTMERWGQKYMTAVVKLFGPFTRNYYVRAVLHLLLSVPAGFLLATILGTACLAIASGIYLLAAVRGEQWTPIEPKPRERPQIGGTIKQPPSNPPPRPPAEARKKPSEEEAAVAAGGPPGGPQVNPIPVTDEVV
B2: Cytochrome b-245 light chain (Homo sapiens), P13498 (parent)
chain: B1 partner

Variants of: B1
Conditions: with cy24a_human CYBA, P13498

Variant | effect of a mutation on the interaction
MGDTFIRHIALLGFEKRFVPSQHYVYMFLVKWQDLSEKVVYRRFTEIYEFHKTLKEMFPIEAGAINPENRIIPHLPAPKWFDGQRAAENRQGTLTEYCSTLMSLPTKISRCPHLLDFFKVRPDDLKLPTDNQTKKPETYLMPKDGKSTATDITGPIILQTYRAAANYEKTSGSEMALSTGDVVEVVEKSESGWWFCQMKAKRGWIPASFLEPLDSPDETEDPEPNYAGEPYVAIKAYTAVEGDEVSLLEGEAVEVIHKLLDGWWVIRKDDVTGYFPSMYLQKSGQDVSQAQRQIKRGAPPRRSSIRNAHSIHQRSRKRLSQDAYRRNSVRFLQQRRRQARPGPQSPGSPLEEERQTQRSKPQPAVPPRPSADLILNRCSESTKRKLASAV [I164A] | decreasing interaction
MGDTFIRHIALLGFEKRFVPSQHYVYMFLVKWQDLSEKVVYRRFTEIYEFHKTLKEMFPIEAGAINPENRIIPHLPAPKWFDGQRAAENRQGTLTEYCSTLMSLPTKISRCPHLLDFFKVRPDDLKLPTDNQTKKPETYLMPKDGKSTATDITGPIILQTYRAIANYEKTSGSEMALSTGDVVEVVEKSESGWWFCQMKAKRGWIPASALEPLDSPDETEDPEPNYAGEPYVAIKAYTAVEGDEVSLLEGEAVEVIHKLLDGWWVIRKDDVTGYFPSMYLQKSGQDVSQAQRQIKRGAPPRRSSIRNAHSIHQRSRKRLSQDAYRRNSVRFLQQRRRQARPGPQSPGSPLEEERQTQRSKPQPAVPPRPSADLILNRCSESTKRKLASAV [F209A] | decreasing interaction

Variants of: B2
Conditions: with ncf1_human NCF1, P14598

Variant | effect of a mutation on the interaction
MGQIEWAMWANEQALASGLILITGGIVATAGRFTQWYFGAYSIVAGVFVCLLEYPRGKRKKGSTMERWGQKYMTAVVKLFGPFTRNYYVRAVLHLLLSVPAGFLLATILGTACLAIASGIYLLAAVRGEQWTPIEPKPRERPQIGGTIKQPPSNPPPRPPAEGGKKPSEEEAAVAAGGPPGGPQVNPIPVTDEVV | decreasing interaction
